Test results from patent publication US20160200782A1 (MOERAE MATRIX, published 2016).

T1: Ron(h) (human, UniProt Q04912 983-1400, limits assumed)
T1 sequence (looked up): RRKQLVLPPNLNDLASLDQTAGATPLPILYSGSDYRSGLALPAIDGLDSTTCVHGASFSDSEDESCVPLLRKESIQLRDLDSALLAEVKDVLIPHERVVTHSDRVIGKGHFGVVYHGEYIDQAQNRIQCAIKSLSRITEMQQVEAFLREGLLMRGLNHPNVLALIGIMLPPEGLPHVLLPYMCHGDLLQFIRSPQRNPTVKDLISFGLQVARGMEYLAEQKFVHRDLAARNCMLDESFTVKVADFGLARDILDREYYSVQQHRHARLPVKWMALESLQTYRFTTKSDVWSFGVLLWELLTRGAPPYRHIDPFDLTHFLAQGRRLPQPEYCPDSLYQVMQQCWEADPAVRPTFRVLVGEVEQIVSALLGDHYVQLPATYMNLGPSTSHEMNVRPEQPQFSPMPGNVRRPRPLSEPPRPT

T2: SGK3(h) (human, UniProt Q96BR1 1-496, limits assumed)
T2 sequence (looked up): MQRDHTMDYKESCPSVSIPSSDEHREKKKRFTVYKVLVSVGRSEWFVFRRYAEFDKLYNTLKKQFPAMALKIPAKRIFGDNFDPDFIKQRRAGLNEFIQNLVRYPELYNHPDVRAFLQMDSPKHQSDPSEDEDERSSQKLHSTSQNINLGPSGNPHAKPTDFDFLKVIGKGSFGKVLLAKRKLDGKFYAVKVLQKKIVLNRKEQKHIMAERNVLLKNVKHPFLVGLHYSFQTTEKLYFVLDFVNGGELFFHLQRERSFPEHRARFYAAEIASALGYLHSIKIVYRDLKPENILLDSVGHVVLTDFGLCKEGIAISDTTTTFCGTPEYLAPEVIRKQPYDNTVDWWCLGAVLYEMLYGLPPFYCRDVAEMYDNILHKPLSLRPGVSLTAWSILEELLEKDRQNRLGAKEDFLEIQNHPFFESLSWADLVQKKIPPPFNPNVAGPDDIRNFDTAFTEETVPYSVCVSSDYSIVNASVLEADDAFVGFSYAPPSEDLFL

T3: DCAMKL2(h) (human, UniProt Q8N568 372-766, limits assumed)
T3 sequence (looked up): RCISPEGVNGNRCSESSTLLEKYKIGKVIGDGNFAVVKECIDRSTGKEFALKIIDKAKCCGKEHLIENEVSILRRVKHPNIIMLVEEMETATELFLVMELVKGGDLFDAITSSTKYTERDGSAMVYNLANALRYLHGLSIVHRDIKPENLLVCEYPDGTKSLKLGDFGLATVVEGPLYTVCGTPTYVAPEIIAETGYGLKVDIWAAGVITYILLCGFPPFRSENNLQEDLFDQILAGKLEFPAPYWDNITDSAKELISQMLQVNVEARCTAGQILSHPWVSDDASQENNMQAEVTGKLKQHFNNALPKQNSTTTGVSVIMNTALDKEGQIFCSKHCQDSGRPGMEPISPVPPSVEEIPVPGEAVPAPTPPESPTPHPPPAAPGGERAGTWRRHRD

T4: eEF-2K(h) (human, UniProt O00418 1-725, limits assumed)
T4 sequence (looked up): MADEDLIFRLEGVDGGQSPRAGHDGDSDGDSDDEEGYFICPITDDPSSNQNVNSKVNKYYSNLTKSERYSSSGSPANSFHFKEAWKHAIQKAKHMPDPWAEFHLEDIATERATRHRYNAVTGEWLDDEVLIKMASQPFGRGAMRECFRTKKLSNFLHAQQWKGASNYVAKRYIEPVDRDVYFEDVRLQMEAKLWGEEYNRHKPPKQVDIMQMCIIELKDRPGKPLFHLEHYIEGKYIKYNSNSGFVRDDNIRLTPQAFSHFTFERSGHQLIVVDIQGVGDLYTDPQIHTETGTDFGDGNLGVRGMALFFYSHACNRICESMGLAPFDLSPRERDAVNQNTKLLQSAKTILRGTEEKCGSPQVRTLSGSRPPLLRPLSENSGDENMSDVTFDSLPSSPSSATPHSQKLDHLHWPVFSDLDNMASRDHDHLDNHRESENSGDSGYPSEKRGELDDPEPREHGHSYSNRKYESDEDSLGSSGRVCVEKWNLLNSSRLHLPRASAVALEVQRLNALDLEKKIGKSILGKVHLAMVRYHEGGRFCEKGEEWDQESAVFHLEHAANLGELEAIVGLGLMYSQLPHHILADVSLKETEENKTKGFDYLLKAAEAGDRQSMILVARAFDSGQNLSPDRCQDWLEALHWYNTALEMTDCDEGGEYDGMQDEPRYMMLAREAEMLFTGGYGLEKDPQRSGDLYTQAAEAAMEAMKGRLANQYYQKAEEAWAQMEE

T5: EphA8(h) (human, UniProt P29322 564-1005, limits assumed)
T5 sequence (looked up): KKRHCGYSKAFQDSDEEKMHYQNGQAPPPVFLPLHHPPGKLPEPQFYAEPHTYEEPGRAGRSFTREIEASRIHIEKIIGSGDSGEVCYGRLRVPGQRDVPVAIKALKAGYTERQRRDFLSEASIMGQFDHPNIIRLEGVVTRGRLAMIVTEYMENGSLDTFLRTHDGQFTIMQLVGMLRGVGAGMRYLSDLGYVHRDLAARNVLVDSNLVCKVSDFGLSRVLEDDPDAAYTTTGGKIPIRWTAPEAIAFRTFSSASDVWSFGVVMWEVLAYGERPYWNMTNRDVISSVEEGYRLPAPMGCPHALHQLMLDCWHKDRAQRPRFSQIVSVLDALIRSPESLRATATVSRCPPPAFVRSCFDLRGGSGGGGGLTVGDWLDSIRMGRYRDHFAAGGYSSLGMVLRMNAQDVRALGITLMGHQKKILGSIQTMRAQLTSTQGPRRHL


What was measured:
Experiment in all cases: cell-based or functional assay
Met(Y1248D)(h) = Met(Y1248D)(h) (human, UniProt P08581-2 974-1408, limits assumed)
Ron(h) = target: T1, Ron(h)
Rsk1(h) = Rsk1(h) (human, UniProt Q15418 1-735, limits assumed)
Rsk1(h), sequence (Q15418 whole entry): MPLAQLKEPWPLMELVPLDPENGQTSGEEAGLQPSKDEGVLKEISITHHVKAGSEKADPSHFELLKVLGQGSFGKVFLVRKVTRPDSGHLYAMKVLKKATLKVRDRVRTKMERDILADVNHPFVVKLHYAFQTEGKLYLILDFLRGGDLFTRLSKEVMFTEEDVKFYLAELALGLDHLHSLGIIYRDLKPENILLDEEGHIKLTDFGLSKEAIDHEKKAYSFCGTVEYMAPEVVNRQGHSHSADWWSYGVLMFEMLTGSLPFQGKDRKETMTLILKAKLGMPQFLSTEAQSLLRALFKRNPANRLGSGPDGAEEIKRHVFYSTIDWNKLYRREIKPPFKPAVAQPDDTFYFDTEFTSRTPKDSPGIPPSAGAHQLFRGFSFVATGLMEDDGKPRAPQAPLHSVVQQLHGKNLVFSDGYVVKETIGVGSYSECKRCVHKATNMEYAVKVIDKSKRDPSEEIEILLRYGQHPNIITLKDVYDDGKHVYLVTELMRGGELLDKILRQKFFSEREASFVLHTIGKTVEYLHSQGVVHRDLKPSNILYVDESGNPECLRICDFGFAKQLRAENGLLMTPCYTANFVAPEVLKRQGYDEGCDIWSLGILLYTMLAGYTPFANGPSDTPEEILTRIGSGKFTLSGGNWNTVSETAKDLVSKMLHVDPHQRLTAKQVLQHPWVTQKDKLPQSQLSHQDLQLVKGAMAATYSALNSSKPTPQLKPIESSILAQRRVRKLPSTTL

SGK3(h) = target: T2, SGK3(h)
Yes(h) = Yes(h) (human, UniProt P07947 1-543, limits assumed)
Yes(h), sequence (P07947 whole entry): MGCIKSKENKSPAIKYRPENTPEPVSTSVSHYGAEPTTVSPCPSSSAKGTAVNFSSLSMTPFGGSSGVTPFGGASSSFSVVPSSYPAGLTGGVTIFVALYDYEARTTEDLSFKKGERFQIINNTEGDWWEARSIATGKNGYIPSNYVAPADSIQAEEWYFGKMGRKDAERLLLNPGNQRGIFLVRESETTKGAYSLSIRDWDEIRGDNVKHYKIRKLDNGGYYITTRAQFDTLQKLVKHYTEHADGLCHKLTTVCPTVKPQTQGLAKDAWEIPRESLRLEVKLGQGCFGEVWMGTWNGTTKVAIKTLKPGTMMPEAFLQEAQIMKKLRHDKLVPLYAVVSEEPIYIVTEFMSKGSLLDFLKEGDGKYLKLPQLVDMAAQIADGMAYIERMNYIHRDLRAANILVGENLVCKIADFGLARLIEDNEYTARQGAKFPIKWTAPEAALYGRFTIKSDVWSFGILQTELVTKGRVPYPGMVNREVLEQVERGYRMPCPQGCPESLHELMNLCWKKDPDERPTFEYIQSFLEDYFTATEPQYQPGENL

DCAMKL2(h) = target: T3, DCAMKL2(h)
eEF-2K(h) = target: T4, eEF-2K(h)
EphA8(h) = target: T5, EphA8(h)
Also: test concentration or dose not given here.

% activity (Met(Y1248D)(h)) | % activity (Ron(h)) | % activity (Rsk1(h)) | % activity (SGK3(h)) | % activity (Yes(h)) | % activity (DCAMKL2(h)) | % activity (eEF-2K(h)) | % activity (EphA8(h)) | Binder
102% | 93% | 46% | 10% | 67% | 81% | 91% | 93% | FAKLAARLYRKALARQLGVAA [MMI-0300]
31% | 79% | 54% | 8% | 14% | 70% | 43% | 146% | KAFAKLAARLYRKALARQLGVAA [MMI-0400]
